For assay [1], the target named is T1, NatA (Homo sapiens, UniProt P41227).
T1 construct: endogenous in cells
T1 sequence (P41227 1-235): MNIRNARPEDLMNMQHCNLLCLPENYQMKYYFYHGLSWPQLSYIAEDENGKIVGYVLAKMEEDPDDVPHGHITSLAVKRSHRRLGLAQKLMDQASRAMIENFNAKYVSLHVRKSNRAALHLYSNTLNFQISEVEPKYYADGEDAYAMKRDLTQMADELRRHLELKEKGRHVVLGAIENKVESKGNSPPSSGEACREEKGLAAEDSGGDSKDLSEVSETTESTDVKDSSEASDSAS
T1 sequence (Q9BXJ9 1-866 partner): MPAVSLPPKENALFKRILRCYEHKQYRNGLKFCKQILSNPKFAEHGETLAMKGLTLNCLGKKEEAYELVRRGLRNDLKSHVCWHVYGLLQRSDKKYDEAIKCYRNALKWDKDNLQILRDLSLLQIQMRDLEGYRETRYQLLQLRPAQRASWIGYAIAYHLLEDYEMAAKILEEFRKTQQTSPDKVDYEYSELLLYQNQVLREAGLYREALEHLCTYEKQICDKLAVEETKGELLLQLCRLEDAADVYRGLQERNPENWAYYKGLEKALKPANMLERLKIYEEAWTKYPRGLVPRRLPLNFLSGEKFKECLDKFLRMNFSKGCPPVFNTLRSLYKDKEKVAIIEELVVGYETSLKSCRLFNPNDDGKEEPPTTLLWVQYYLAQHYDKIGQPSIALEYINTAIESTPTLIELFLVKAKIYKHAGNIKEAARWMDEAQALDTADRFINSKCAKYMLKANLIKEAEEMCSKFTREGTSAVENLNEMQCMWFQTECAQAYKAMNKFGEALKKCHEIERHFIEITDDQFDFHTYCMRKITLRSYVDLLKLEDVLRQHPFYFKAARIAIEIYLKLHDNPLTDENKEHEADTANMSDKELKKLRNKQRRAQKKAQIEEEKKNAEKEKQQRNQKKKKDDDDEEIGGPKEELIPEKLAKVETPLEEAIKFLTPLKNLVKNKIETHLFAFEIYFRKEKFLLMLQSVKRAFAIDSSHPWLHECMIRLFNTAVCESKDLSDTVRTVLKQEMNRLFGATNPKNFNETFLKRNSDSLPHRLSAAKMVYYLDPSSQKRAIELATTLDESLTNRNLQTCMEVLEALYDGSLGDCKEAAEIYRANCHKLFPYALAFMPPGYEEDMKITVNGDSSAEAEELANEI
The settings on record: NatA complex; Foyn et al. 2013; cited from earlier work.

Assay [2] concerns the target T2, NatA complex (Naa15-Naa10) (human, UniProt P41227 1-235; Q9BXJ9 1-866).
T2 sequence (looked up) 1: T1 sequence (P41227 1-235)
T2 sequence (looked up) 2: T1 sequence (Q9BXJ9 1-866 partner)
Briefly: cell-based or functional assay.

Assay [3] concerns the target Naa60 (Homo sapiens, UniProt Q9H7X0). Briefly: Ki calculated by Cheng-Prusoff from IC50 of Nt-acetylation inhibition assay.
The target in assay [4] is NatB (Homo sapiens, UniProt P61599). The assay is described as above.
Chain of NatB (P61599 whole entry): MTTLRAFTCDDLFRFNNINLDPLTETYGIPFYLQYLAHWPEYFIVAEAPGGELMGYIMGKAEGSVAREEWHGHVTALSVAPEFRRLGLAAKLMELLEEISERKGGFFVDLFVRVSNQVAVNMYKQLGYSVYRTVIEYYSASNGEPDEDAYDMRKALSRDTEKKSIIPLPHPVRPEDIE
For assay [5], the target named is Naa50 (human) (UniProt Q9GZZ1). Described as above.
Assay [6] concerns the target T2, NatA complex (Naa15-Naa10). The description is as above.
Assay [7] addresses T3, Naa10 (monomeric) (human, UniProt P41227 1-235, limits assumed).
T3 construct: also called hNaa10; Ard1
T3 sequence (looked up): T1 sequence (P41227 1-235)
The description is as above.

Assay [8] has as its target Naa40 (Homo sapiens, UniProt Q86UY6). The description is as above.
The target of assay [9] is Naa30 (UniProt Q147X3). Described as above.
Chain of Naa30 (Q147X3 whole entry, the tested form may be a part): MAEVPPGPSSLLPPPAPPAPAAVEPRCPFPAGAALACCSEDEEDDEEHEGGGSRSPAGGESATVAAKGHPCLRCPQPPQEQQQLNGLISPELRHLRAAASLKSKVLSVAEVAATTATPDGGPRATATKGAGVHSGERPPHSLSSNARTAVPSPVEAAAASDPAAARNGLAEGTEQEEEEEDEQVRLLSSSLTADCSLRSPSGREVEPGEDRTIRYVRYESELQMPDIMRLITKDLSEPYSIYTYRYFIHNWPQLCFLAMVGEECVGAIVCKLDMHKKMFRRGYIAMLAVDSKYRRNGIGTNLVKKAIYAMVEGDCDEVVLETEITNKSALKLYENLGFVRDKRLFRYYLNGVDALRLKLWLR
The target in assay [10] is T2, NatA complex (Naa15-Naa10). The assay can be described thus: comparison of Ki values from Nt-acetylation inhibition assays.
Assay [11] concerns the target T4, Naa10 (Homo sapiens, UniProt P41227).
T4 sequence (P41227 1-235): T1 sequence (P41227 1-235)
The settings on record: hNaa10, catalytic subunit of NatA; Foyn et al. 2013; cited from earlier work.

Assay [12] has as its target T5, Naa80 (Homo sapiens, UniProt Q93015).
T5 construct: The PCR product containing the CDS was inserted into the TOPO TA vector; made in house; host or cells: E. coli BL21 Star (DE3)
T5 sequence (Q93015 1-308 isoform Q93015-2): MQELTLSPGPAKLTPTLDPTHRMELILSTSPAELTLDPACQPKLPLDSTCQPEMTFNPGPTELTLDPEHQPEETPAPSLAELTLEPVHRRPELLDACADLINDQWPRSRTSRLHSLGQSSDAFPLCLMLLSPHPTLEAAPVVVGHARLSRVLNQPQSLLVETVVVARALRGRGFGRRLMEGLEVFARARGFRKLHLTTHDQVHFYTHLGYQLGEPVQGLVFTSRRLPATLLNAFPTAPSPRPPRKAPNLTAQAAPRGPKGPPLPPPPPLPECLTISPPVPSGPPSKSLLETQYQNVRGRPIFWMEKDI
The assay can be described thus: Nt-acetylation inhibitor assay for Naa80. The format is biochemical. The note with it: Naa80. As for the experimental part: FIG. 10: (A) IC50 values for inhibitors measured in an Nt-acetylation inhibitor assay for Naa80. (B) Ki-values for CoA-Ac-DDDI-NH2 (SEQ ID NO: 6) for different human NATs measured in an Nt-acetylation inhibitor assay. All reactions were performed at least three times and in triplicate; errors bars represent standard deviation of each measurement.
The IC50 values for these compounds were tested as described in Foyn H, et al. (2013) “Design, Synthesis, and Kinetic Characterization of Protein N-Terminal Acetyltransferase Inhibitors”. ACS Chem Biol 8:1121-1127; and Foyn H, et al. (2017) “DTNB-Based quantification of in vitro enzymatic N-terminal acetyltransferase activity”, Methods Mol. Biol. 1574:9-15. Briefly, a colorimetric acetylation assay, 5,5′-dithiobis-(2-nitrobenzoic acid) (DTNB) assay was used to measure the catalytic activity of NATs after incubation with NAT inhibitors. In the DTNB assay, thiols present in the enzymatic product, CoA, cleaves DTNB and produces 2-nitro-5-thiobenzoate (NTB-), which absorbs light with a wavelength of 412 nm. NTB- forms in a 1:1 molar ratio to the thiol groups present in the sample. Therefore, NTB- was quantified by measuring the absorbance at 412 nm and indirectly measures peptide Nt-acetylation. […] After 30 min-60 min incubation at 37° C., the enzyme activity was quenched with quenching buffer (3.2 M guanidinium-HCl, 100 mM sodium phosphate dibasic pH 6.8). Triplicates were run for all positive samples, while negative controls were duplicated. As a negative control, reactions without enzyme were incubated at 37° C. before the reaction was quenched and added enzyme. In order to measure CoA production, 2 mM DTNB (dissolved in 100 mM sodium phosphate dibasic pH 6.8 and 10 mM EDTA) was added to the quenched reaction and the absorbance at 412 nm was measured with a spectrophotometer (Epoc). Background absorbance (determined in negative controls) was subtracted from the absorbance determined in each individual reaction. Thiophenolate production was quantified assuming ε=13.7×103 M−1 cm−1. For NatA and NatB enzyme complex inhibition, immunoprecipitation was performed using Naa15 ab (custom made, Arnesen T, Anderson D, Baldersheim C, Lanotte M, Varhaug J E, Lillehaug J R. (2005) Identification and characterization of the human ARD1-NATH protein acetyltransferase complex. Biochemical J 386(Pt 3):433-43.) or Naa20 ab (Nat5, abnova) respectively and protein A/G magnetic agarose beads (Millipore). A similar Nt-acetylation reaction was performed as previously described and the enzymatic activity was quenched with a final concentration of 1% TFA and analyzed by HPLC (Evjenth R, Van Damme P, Gevaert K, Arnesen T (2013) HPLC-based Quantification of in vitro N-terminal Acetylation. Methods Mol Biol 981:95-102.).
We then pursued Naa80 bisubstrate analogue inhibitors based on the results of the substrate screening and the sequences of the cellular substrates processed β- and γ-actin. We synthesized bisubstrate conjugates of Coenzyme A coupled to the tetrapeptides MDEL-NH2 (SEQ ID NO: 8), DDDI-NH2 (SEQ ID NO: 6), EEEI-NH2 (SEQ
ID NO: 7), and MLGT-NH2 (SEQ ID NO: 52) via an acetamide (Ac) linker.
The following additional Naa80 bisubstrate analogue inhibitors were produced and tested as described above: […]

Assay [13] concerns the target T6, Naa50 (Homo sapiens, UniProt Q9GZZ1).
T6 sequence (Q9GZZ1 1-169): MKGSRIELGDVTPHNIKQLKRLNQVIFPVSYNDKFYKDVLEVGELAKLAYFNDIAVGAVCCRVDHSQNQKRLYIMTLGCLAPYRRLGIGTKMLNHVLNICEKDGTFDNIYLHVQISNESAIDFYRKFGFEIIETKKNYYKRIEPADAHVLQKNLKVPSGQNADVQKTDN
The settings on record: NatE/hNaa50; Foyn et al. 2013; cited from earlier work.

Assay [14] has as its target T7, MBP-HishNAA80 fusion protein (MBP-Naa80) (human, UniProt Q93015-2 1-308).
T7 sequence (looked up): T5 sequence (Q93015 1-308 isoform Q93015-2)
The assay can be described thus: cell-based or functional assay.

Assay [15] deals with T3, Naa10 (monomeric). Briefly: Ki from Nt-acetylation inhibitor assay, panel of human NATs.
Assay [16] concerns the target T7, MBP-HishNAA80 fusion protein (MBP-Naa80). The description is as above.
For assay [17] the target is unchanged. The assay can be described thus: cell-based or functional assay. This is another data set of the same source.

Primed or numbered codes have the meaning given here. Ends that are not written are not given here. Ac′ = acetamide linker; CoA = coenzyme A Some results are limits rather than exact numbers.

Usually IC50 stands for the midpoint of a concentration-inhibition curve. Consider `CC(C)(COP(=O)(O)OP(=O)(O)OCC1OC(n2cnc3c(N)ncnc32)C(O)C1OP(=O)(O)O)C(O)C(=O)NCCC(=O)NCCSCC(=O)N[C@@H](CO)C(=O)N[C@@H](CCC(=O)O)C(=O)N[C@@H](CO)C(=O)N[C@@H](CO)C(N)=O` (stereo partly drawn) [CoA-Ac-SESS], for which, in assay [1], the concentration for half-maximal inhibition (IC50) is 15.1 µM.
The term Ki denotes the dissociation constant of the complex between target and ligand, obtained from inhibition or displacement. In [2], CoA-Ac-SSNleP-NH2 (peptide) gave an IC50 (µM), Nt-acetylation inhibition of 1.46 µM. The inhibitory constant (Ki) is 3.1 µM in [3]; 41.6 µM in [4]; 17.7 µM in assay [5]; 0.143 µM in assay [6]; 98.9 µM in [7]; 41.9 µM in [8]. Further, the Ki in [9] was 132 µM. Also, the fold more potent towards NatA than all the other NATs tested in [10] was greater than 100 fold.
On to `CC[C@H](C)[C@H](NC(=O)[C@H](CCC(=O)O)NC(=O)[C@H](CCC(=O)O)NC(=O)[C@H](CCC(=O)O)NC(=O)CSCCNC(=O)CCNC(=O)C(O)C(C)(C)COP(=O)(O)OP(=O)(O)OCC1OC(n2cnc3c(N)ncnc32)C(O)C1OP(=O)(O)O)C(N)=O` (stereo partly drawn) [CoA-Ac-EEEI-NH2], for which the half-maximal inhibitory concentration (IC50) in [11] was 10.1 µM; in assay [12], 1.16 µM.
With “CoA-Ac-MLG7: Previously disclosed bisubstrate analogue inhibitor of NatE/hNaa50 (SEQ ID NO: 49), Foyn 2013 ({CoA-Ac′}-MLGPEGG)”, the IC50 in assay [13] was 1.29 µM.
{CoA-Ac}-DDDI-NH2 [CoA-Ac-DDDI-NH2]: the “IC50 (µM), Nt-acetylation inhibition” value in [14] amounted to 0.38 µM. In [15], the “fold reduced potency for Naa10 compared to Naa80” value came out at 88 fold. In assay [16], this molecule showed an inhibition constant (Ki) of 0.043 µM. In [17], the “fold more potent than CoA-Ac-EEEI-NH2 (IC50)” value was found to be 3 fold and the “fold more potent than CoA-Ac-MDEL-NH2 (IC50)” value is 3.3 fold.

The values are drawn from patent US20200323888A1, “INHIBITORS” (VESTLANDETS INNOVASJONSSELSKAP AS, priority 2017, published 2020).
